Laboratory results published in patent publication US20250163145A1 (SHIONOGI, published 2025).
Where no end group is shown, it is not given here.

T1: epitope peptide Cys-CE3C long (also: biotin label, site not given here)
T1 peptide: CSVNVDKQPKYEYSL


Biological target: T1, epitope peptide Cys-CE3C long
Experiment: competitive ELISA, unlabeled vs biotin-labeled peptide, antibody on anti-human IgG plate
Method: A diluted solution of the obtained recombinant humanized antibody, a biotin-labeled immunogen peptide, and Streptavidin-HRP (manufactured by PIERCE) were added to an anti-human IgG antibody-immobilized plate, and reacted overnight at 4° C. […] Next, a recombinant human antibody at the dilution rate, a biotin-labeled immunogen peptide, and Streptavidin-HRP (manufactured by PIERCE) were added. At the same time, a dilution series of unlabeled immunogenic peptide was added and reacted overnight at 4° C. After washing twice with ELISA wash buffer, TMB-Substrate Chromogen (manufactured by Thermo Fisher Scientific) was added to develop color, the reaction was stopped with an equal amount of 0.5N sulfuric acid, and the absorbance at 450 nm was measured. The concentration of the unlabeled peptide which attenuated the signal of the biotin-labeled peptide by half was defined as the affinity (IC50).

IC50	Binder
0.8 nM	h15H11-21 (antibody, human IgG4 S228P, kappa, V domains shown, hIgG4Pro/hIgK) VH: QVQLVQSGSELKKPGASVKVSCKASGYTFTEYNMHWVRQAPGRSLEWMGRINPKNGVILSNEKFKDRFVFSLDTSVSTAYLQISSLKAEDTAVYYCAPSYYGGNTDAYWGQGTLVTVSS VL: DIVLTQSPASLAVSPGQRATITCRASDSVDNYGISFLNWFQQKPGQPPKLLIYAASSQGSGVPARFSGSGSGTDFTLTINPMEANDTANYYCQQSKEFPWTFGGGTKVEIKR
1.02 nM	h15H11-36 (antibody, human IgG4 S228P, kappa, V domains shown, hIgG4Pro/hIgK) VH: QVQLVQSGSELKKPGASVKVSCKASGYTFTDYNMHWVRQAPGRSLEWMGRINPKNGVINLNEKFKDRFVFSLDTSVSTAYLQISSLKAEDTAVYYCAPSYYGGNTDAYWGQGTLVTVSS VL: DIVLTQSPASLAVSPGQRATITCRASDSVDNYGISFLNWFQQKPGQPPKLLIYAASSQGSGVPARFSGSGSGTDFTLTINPMEANDTANYYCQQSKEFPWTFGGGTKVEIKR
0.83 nM	h15H11-23 (antibody, human IgG4 S228P, kappa, V domains shown, hIgG4Pro/hIgK) VH: QVQLVQSGSELKKPGASVKVSCKASGYTFTEYNMHWVRQAPGRSLEWMGRINPKNGVINSNEKFKDRFVFSLDTSVSTAYLQISSLKAEDTAVYYCAPSYYGGNSDAYWGQGTLVTVSS VL: DIVLTQSPASLAVSPGQRATITCRASDSVDNYGISFLNWFQQKPGQPPKLLIYAASSQGSGVPARFSGSGSGTDFTLTINPMEANDTANYYCQQSKEFPWTFGGGTKVEIKR
0.98 nM	h15H11-33 (antibody, human IgG4 S228P, kappa, V domains shown, hIgG4Pro/hIgK) VH: QVQLVQSGSELKKPGASVKVSCKASGYTFTDYNMHWVRQAPGRSLEWMGRINPKNGVIQSNEKFKDRFVFSLDTSVSTAYLQISSLKAEDTAVYYCAPSYYGGNSDAYWGQGTLVTVSS VL: DIVLTQSPASLAVSPGQRATITCRASDSVDNYGISFLNWFQQKPGQPPKLLIYAASSQGSGVPARFSGSGSGTDFTLTINPMEANDTANYYCQQSKEFPWTFGGGTKVEIKR
0.88 nM	h15H11-26 (antibody, human IgG4 S228P, kappa, V domains shown, hIgG4Pro/hIgK) VH: QVQLVQSGSELKKPGASVKVSCKASGYTFTDYNMHWVRQAPGRSLEWMGRINPKNGVINSNEKFKDRFVFSLDTSVSTAYLQISSLKAEDTAVYYCAPSYYGGDTDAYWGQGTLVTVSS VL: DIVLTQSPASLAVSPGQRATITCRVSDSVDNYGISFLNWFQQKPGQPPKLLIYAASSQGSGVPARFSGSGSGTDFTLTINPMEANDTANYYCQQSKEFPWTFGGGTKVEIKR
0.86 nM	h15H11-25 (antibody, human IgG4 S228P, kappa, V domains shown, hIgG4Pro/hIgK) VH: QVQLVQSGSELKKPGASVKVSCKASGYTFTEYNMHWVRQAPGRSLEWMGRINPKNGVILSNEKFKDRFVFSLDTSVSTAYLQISSLKAEDTAVYYCAPSYYGGNTDAYWGQGTLVTVSS VL: DIVLTQSPASLAVSPGQRATITCRASESVDNYGISFMNWFQQKPGQPPKLLIYAASSQGSGVPARFSGSGSGTDFTLTINPMEANDTANYYCQQSKEFPWTFGGGTKVEIKR
0.91 nM	h15H11-29 (antibody, human IgG4 S228P, kappa, V domains shown, hIgG4Pro/hIgK) VH: QVQLVQSGSELKKPGASVKVSCKASGYTFTDYNMHWVRQAPGRSLEWMGRINPKNGVILSNEKFKDRFVFSLDTSVSTAYLQISSLKAEDTAVYYCAPSYYGGNTDAYWGQGTLVTVSS VL: DIVLTQSPASLAVSPGQRATITCRASESVDNYGISFMNWFQQKPGQPPKLLIYAASSQGSGVPARFSGSGSGTDFTLTINPMEANDTANYYCQQSKEFPWTFGGGTKVEIKR
0.91 nM	h15H11-28 (antibody, human IgG4 S228P, kappa, V domains shown, hIgG4Pro/hIgK) VH: QVQLVQSGSELKKPGASVKVSCKASGYTFTEYNMHWVRQAPGRSLEWMGRINPKNGVINSNEKFKDRFVFSLDTSVSTAYLQISSLKAEDTAVYYCAPSYYGGNSDAYWGQGTLVTVSS VL: DIVLTQSPASLAVSPGQRATITCRASESVDNYGISFMNWFQQKPGQPPKLLIYAASSQGSGVPARFSGSGSGTDFTLTINPMEANDTANYYCQQSKEFPWTFGGGTKVEIKR
0.95 nM	h15H11-32 (antibody, human IgG4 S228P, kappa, V domains shown, hIgG4Pro/hIgK) VH: QVQLVQSGSELKKPGASVKVSCKASGYTFTEYNMHWVRQAPGRSLEWMGRINPKNGVINSNEKFKDRFVFSLDTSVSTAYLQISSLKAEDTAVYYCAPSYYGGNSDAYWGQGTLVTVSS VL: DIVLTQSPASLAVSPGQRATITCRVSDSVDNYGISFLNWFQQKPGQPPKLLIYAASSQGSGVPARFSGSGSGTDFTLTINPMEANDTANYYCQQSKEFPWTFGGGTKVEIKR
0.8 nM	h15H11-22 (antibody, human IgG4 S228P, kappa, V domains shown, hIgG4Pro/hIgK) VH: QVQLVQSGSELKKPGASVKVSCKASGYTFTEYNMHWVRQAPGRSLEWMGRINPKNGVINSNEKFKDRFVFSLDTSVSTAYLQISSLKAEDTAVYYCAPSYYGGDTDAYWGQGTLVTVSS VL: DIVLTQSPASLAVSPGQRATITCRASESVDNYGISFMNWFQQKPGQPPKLLIYAASSQGSGVPARFSGSGSGTDFTLTINPMEANDTANYYCQQSKEFPWTFGGGTKVEIKR
0.91 nM	h15H11-27 (antibody, human IgG4 S228P, kappa, V domains shown, hIgG4Pro/hIgK) VH: QVQLVQSGSELKKPGASVKVSCKASGYTFTDYNMHWVRQAPGRSLEWMGRINPKNGVILSNEKFKDRFVFSLDTSVSTAYLQISSLKAEDTAVYYCAPSYYGGNTDAYWGQGTLVTVSS VL: DIVLTQSPASLAVSPGQRATITCRVSDSVDNYGISFLNWFQQKPGQPPKLLIYAASSQGSGVPARFSGSGSGTDFTLTINPMEANDTANYYCQQSKEFPWTFGGGTKVEIKR
0.85 nM	h15H11-24 (antibody, human IgG4 S228P, kappa, V domains shown, hIgG4Pro/hIgK) VH: QVQLVQSGSELKKPGASVKVSCKASGYTFTEYNMHWVRQAPGRSLEWMGRINPKNGVIQSNEKFKDRFVFSLDTSVSTAYLQISSLKAEDTAVYYCAPSYYGGNSDAYWGQGTLVTVSS VL: DIVLTQSPASLAVSPGQRATITCRASDSVDNYGISFLNWFQQKPGQPPKLLIYAASSQGSGVPARFSGSGSGTDFTLTINPMEANDTANYYCQQSKEFPWTFGGGTKVEIKR
1 nM	h15H11-35 (antibody, human IgG4 S228P, kappa, V domains shown, hIgG4Pro/hIgK) VH: QVQLVQSGSELKKPGASVKVSCKASGYTFTDYNMHWVRQAPGRSLEWMGRINPKNGVINSNEKFKDRFVFSLDTSVSTAYLQISSLKAEDTAVYYCAPSYYGGNQDAYWGQGTLVTVSS VL: DIVLTQSPASLAVSPGQRATITCRASDSVDNYGISFLNWFQQKPGQPPKLLIYAASSQGSGVPARFSGSGSGTDFTLTINPMEANDTANYYCQQSKEFPWTFGGGTKVEIKR
0.92 nM	h15H11-30 (antibody, human IgG4 S228P, kappa, V domains shown, hIgG4Pro/hIgK) VH: QVQLVQSGSELKKPGASVKVSCKASGYTFTDYNMHWVRQAPGRSLEWMGRINPKNGVINSNEKFKDRFVFSLDTSVSTAYLQISSLKAEDTAVYYCAPSYYGGDTDAYWGQGTLVTVSS VL: DIVLTQSPASLAVSPGQRATITCRASDSVDNYGISFLNWFQQKPGQPPKLLIYAASSQGSGVPARFSGSGSGTDFTLTINPMEANDTANYYCQQSKEFPWTFGGGTKVEIKR
0.99 nM	h15H11-34 (antibody, human IgG4 S228P, kappa, V domains shown, hIgG4Pro/hIgK) VH: QVQLVQSGSELKKPGASVKVSCKASGYTFTEYNMHWVRQAPGRSLEWMGRINPKNGVINSNEKFKDRFVFSLDTSVSTAYLQISSLKAEDTAVYYCAPSYFGGQSDAYWGQGTLVTVSS VL: DIVLTQSPASLAVSPGQRATITCRASDSVDNYGISFLNWFQQKPGQPPKLLIYAASSQGSGVPARFSGSGSGTDFTLTINPMEANDTANYYCQQSKEFPWTFGGGTKVEIKR
0.93 nM	h15H11-31 (antibody, human IgG4 S228P, kappa, V domains shown, hIgG4Pro/hIgK) VH: QVQLVQSGSELKKPGASVKVSCKASGYTFTEYNMHWVRQAPGRSLEWMGRINPKNGVIQSNEKFKDRFVFSLDTSVSTAYLQISSLKAEDTAVYYCAPSYYGGNSDAYWGQGTLVTVSS VL: DIVLTQSPASLAVSPGQRATITCRASESVDNYGISFMNWFQQKPGQPPKLLIYAASSQGSGVPARFSGSGSGTDFTLTINPMEANDTANYYCQQSKEFPWTFGGGTKVEIKR
